The target in experiment [1] is swine fibronectin (swine). The experiment is described as follows: SPR.
The target in experiment [2] is swine plasminogen (swine). The experiment is described as follows: SPR. (SPR reads the build-up and loss of mass on a sensor chip optically.)

The term Kd denotes the constant that tells how readily two partners part at equilibrium. A lower Kd goes with tighter binding.

Take “Mycoplasma bovis enolase (from UniProt A0A454AQL1 1-454) (enzyme)”: the Kd in experiment [1] amounted to 486 nM; in experiment [2], 95.2 nM.

Regarding “Mycoplasma hyopneumoniae enolase (enzyme)”, the Kd is 74.1 nM in experiment [1] and 62.5 nM in experiment [2].

As for “Mycoplasma pneumoniae enolase (from UniProt P75189 1-456) (enzyme)”, the results for the Kd in experiment [1] and in experiment [2] were over 1000 nM and 300 nM, respectively.

The values above are taken from paper PMC8822174.
